Where two headings read alike, the source gives them in different places.
Key:
[1] = biological target: T1, CD47 on the red cell surface (Homo sapiens (Human), UniProt Q08722 19-323); experiment: flow cytometry on fixed red cells, antibody 1 µg/mL
Method: (§1) Anticoagulated blood was collected and well mixed with an equal amount of normal saline. The mixture was centrifuged at 2000 rpm/min for 5 min, and the supernatant was removed. […] In the first two washings, the mixture was centrifuged at 2000 rpm/min for 5 min, and in the last washing, the mixture was centrifuged at 2000 rpm/min for 10 min, and the supernatant was removed.

CD47 on HL60 cells [2] = biological target: T2, CD47 on HL60 cells (UniProt Q08722 19-323, limits assumed); experiment: cell-based or functional assay
[3] = biological target: T3, cynomolgus/rhesus macaque CD47 protein, His Tag (ACRObiosystems, Cat. No. CD7-C52H1) (cynomolgus monkey (cynomolgus/rhesus …, UniProt A0A2K5X523 19-141)); experiment: Biacore SPR, 25 C, antibody captured on CM5 chip
T3 construct: bought reagent; also called Cynomolgus monkey CD47 protein

[4] = biological target: T4, human CD47 protein, His Tag (ACRObiosystems, Cat. No. CD7-H5227) (human, UniProt Q08722 19-139); experiment: Biacore SPR, 25 C, antibody captured on CM5 chip; Biacore at 25 C; antibody captured on the chip, soluble CD47-His as analyte
T4 construct: bought reagent; also called CD47-His; hCD47-His Tag; not shown: His tag

[5] = biological target: T4, human CD47 protein, His Tag …; experiment: ELISA, CD47-His coated, competition with Human-SIRPα-mFc; Blocking ELISA; CD47-His coated on plate, SIRPα-mFc bound first, antibody from 20 µg/mL, mouse Fc detected
Method: (§2) The plate was let stand at 2-8° C. overnight. The wells were aspirated to remove the coating buffer and blocked with 100 μL/well of a blocking solution (PBS with 1% (w/v) bovine serum albumin (BSA, Sigma, Cat. No. B2064-100G)) by incubation at 37° C. for 1 h. The 96-well plate was washed with a washing buffer (PBS with 0.01% (w/v) Tween 20 (Sigma, Cat. No. P9416-100ML)). […] After the 96-well plate was washed with PBS washing buffer, anti-CD47 chimeric antibodies or anti-CD47 humanized antibodies (see Table 8 for chimeric antibodies, and see Table 9 for humanized antibodies) were added. 4-fold dilution was performed with PBS buffer from a starting concentration of 20 μg/mL, with 8 gradients obtained. The plate was incubated at room temperature for 1.5 h. […] After the 96-well plate was washed with PBS buffer, 100 μL/well of a substrate solution TMB (TIANGEN, Cat. No. PA107-01) was added, and the plate was incubated at room temperature for color development for 10 min. 100 μL/well of 1 M H₂SO₄ was added to stop the reaction. Colorimetric signals were generated and read at 450 nm using a multifunctional microplate reader (manufacturer: PerkinElmer; model: EnVision). Data were analyzed using GraphPad Prism5, and EC₅₀ was calculated.

[6] = biological target: T1, CD47 on the red cell surface; experiment: flow cytometry on fixed red cells, antibody 10 µg/mL
Method: as §1

CD47 on Jurkat cells = biological target: T5, CD47 on Jurkat cells (UniProt Q08722 19-323, limits assumed); experiment: flow cytometry on Jurkat cells, competition with Human-SIRPα-mFc
T5 construct: whole, on cells; Jurkat is a human T cell line
Method: The plate was incubated at room temperature for 1 h. After the plate was washed twice with PBS buffer, 100 μL of anti-CD47 chimeric antibodies (Table 7) was added to each well. 4-fold dilution was performed with PBS buffer from a starting concentration of 20 μg/mL, with 8 gradients obtained. The plate was incubated at room temperature for 1-2 h. […] The plate was incubated at room temperature for 1 h and washed 3 times with PBS buffer.

[7] = biological target: T4, human CD47 protein, His Tag …; experiment: ELISA, plate coated with CD47-His
Method: (§3) An ELISA binding assay was performed based on human CD47 protein and anti-CD47 chimeric antibodies or anti-CD47 humanized antibodies. […] The wells were aspirated, and non-specific binding sites were blocked by adding 100 L/well of a blocking solution (PBS with 1% (w/v) bovine serum albumin (BSA, Sigma, Cat. No. B2064-100G)) and incubating the plate at 37° C. for 1 h. After the 96-well plate was washed three times with a washing buffer (PBS with 0.01% (w/v) Tween 20 (Sigma, Cat. No. P9416-100ML)), 100 μL/well of 1:4 serial dilutions (from 30 g/mL) of anti-CD47 antibodies (see Table 3 for chimeric antibodies, and see Table 4 for humanized antibodies) in blocking solution were added, and the plate was incubated at room temperature for 2 h. […] After the 96-well plate was washed, 100 μL/well of a substrate solution TMB (TIANGEN, Cat. No. PA107-01) was added, and the 96-well plate was incubated at room temperature for 10 min. 100 μL/well of a stop solution (1 M H₂SO₄) was added to stop the reaction. Colorimetric signals were generated and read at 450 nm using a multifunctional microplate reader (manufacturer: PerkinElmer; model: EnVision). Data were analyzed using GraphPad Prism5, and EC₅₀ was calculated.

[8] = biological target: T4, human CD47 protein, His Tag …; experiment: Biacore SPR, 25 C, antibody captured on CM5 chip
[9] = biological target: T4, human CD47 protein, His Tag …; experiment: ELISA, CD47-His coated, competition with Human-SIRPα-mFc
Method: as §2

[10] = biological target: T6, human CD47 protein on CHO-K1-CD47 cells (human, UniProt Q08722 19-323); experiment: cell binding, CHO-K1-CD47 cells, high content imaging
T6 construct: whole, on cells; also called CHO-K1 cells expressing human CD47 protein
Method: (§4) A cell binding assay of anti-CD47 antibodies (chimeric or humanized) was performed based on the binding to a CHO-K1 cell line stably expressing CD47. CHO-K1-CD47 cells (CHO-K1 cells expressing human CD47 protein) were added to each well of a 96-well plate (Eppendorf, Cat. No. C030730.119) at 1.2×10⁴ cells per well and incubated with anti-CD47 antibodies (20 μg/mL, 1:4 dilution in PBS) at room temperature for 1-2 h. […] The cells were incubated at room temperature for 30 min. The cells were washed three times with PBS buffer. A nuclear dye Hoechst (Sigma, Cat. No. B2261) was diluted with PBS buffer at a dilution ratio of 1:500 and then added to each well at 100 μL/well for staining for 10 min. The cells were washed 3 times with PBS and analyzed using a high content screening system (manufacturer: PerkinElmer; model: Operetta).

[11] = biological target: T1, CD47 on the red cell surface; experiment: cell-based or functional assay
[12] = biological target: T1, CD47 on the red cell surface; experiment: flow cytometry on fixed red cells, antibody 1 µg/mL; remark: listed apart in the source
Method: as §1

[13] = biological target: T4, human CD47 protein, His Tag …; experiment: ELISA, plate coated with CD47-His; remark: listed apart in the source
Method: as §3

[14] = biological target: T4, human CD47 protein, His Tag …; experiment: ELISA, CD47-His coated, competition with Human-SIRPα-mFc; remark: listed apart in the source
Method: as §2

CD47 on HL60 cells [15] = biological target: T2, CD47 on HL60 cells; experiment: cell-based or functional assay; remark: listed apart in the source
[16] = biological target: T6, human CD47 protein on CHO-K1-CD47 cells; experiment: cell binding, CHO-K1-CD47 cells, high content imaging; remark: listed apart in the source
Method: as §4

[17] = biological target: T1, CD47 on the red cell surface; experiment: flow cytometry on fixed red cells, antibody 10 µg/mL; remark: listed apart in the source
Method: as §1

[18] = biological target: T4, human CD47 protein, His Tag …; experiment: Biacore SPR, 25 C, antibody captured on CM5 chip; remark: listed apart in the source
[19] = biological target: T3, cynomolgus/rhesus macaque CD47 protein, …; experiment: Biacore SPR, 25 C, antibody captured on CM5 chip; remark: listed apart in the source

T3 sequence (A0A2K5X523 entry or part of it limits assumed): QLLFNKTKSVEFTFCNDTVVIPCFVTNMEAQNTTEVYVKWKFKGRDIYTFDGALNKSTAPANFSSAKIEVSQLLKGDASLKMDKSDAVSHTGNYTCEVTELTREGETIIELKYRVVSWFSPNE

Binder | MFI [1] [MFI] | rate of phagocytosis, antibody 1 µg/mL (CD47 on HL60 cells [2]) [%] | rate of phagocytosis, antibody 10 µg/mL (CD47 on HL60 cells [2]) [%] | Kd [3] [nM] | MFI [6] [MFI] | IC50 (CD47 on Jurkat cells) [µg/mL] | EC50 [7] [µg/mL] | Kd [8] [nM] | IC50 [9] [µg/mL] | EC50 [10] [µg/mL] | red cell agglutination, lowest concentration causing it [11] [µg/mL] | MFI [12] [MFI] | EC50 [13] [µg/mL] | IC50 [14] [µg/mL] | rate of phagocytosis, antibody 1 µg/mL (CD47 on HL60 cells [15]) [%] | rate of phagocytosis, antibody 10 µg/mL (CD47 on HL60 cells [15]) [%] | EC50 [16] [µg/mL] | MFI [17] [MFI] | Kd [18] [nM] | Kd [19] [nM] | other results
Xi2H8 (antibody, human IgG4 S228P, kappa, V domains shown, mouse variable regions on human IgG4 (EU S228P) and human kappa constant regions; also called chimeric 2H8 antibody) VH: QVQLKESGPGLVAPSQSLSITCTVSGFSLTNYGVHWVRQPPGKGLEWLGIIWAGGSTNYNSALMSRLSISKDNSKSQVFLKMNSLQTDDTAMYYCARDDYASMDYWGQGTSVTVSS VL: DAFMTQTPLSLPVSLGDQASISCRSSQSLVHSNGNTYLHWYLQKPGQSPKLLIYKVSNRFSGVPDRFSGSGSGTDFTLKISRVEAEDLGVYFCSQSTHVPYTLGGGTKLEIKR | 952 | 7.1 | 3.5 | 1.25 | 5300 | 27 |  |  |  |  |  |  |  |  |  |  |  |  |  |  | Kd [4]: 0.35 nM; IC50 [5]: 0.00468 µg/mL
Xi16E5 (antibody, human IgG4 S228P, kappa, V domains shown, mouse variable regions on human IgG4 (EU S228P) and human kappa constant regions; also called chimeric 16E5 antibody) VH: EVQLQQSGPELKKPGETVKISCKASGYTFTNYGMNWVKQVPGKGLKWMGWINTNTGEPTYAEEFKGRFAFSLETSARTAFLQINNLKNEDTATYFCTRFSHLRGPMDYWGQGASVTVSS VL: DAVMTQTPLSLPVSLGDQASISCRSSQSLVHSNGYTYLHWYLQKPGQSPKLLIYKVSNRFSGVPDRFSGSGSGTDFTLKISRLEAEDLGVYFCSQSTHVPPTFGGGTKLEIKR | 1310 | 11.5 | 28.8 | 2.92 | 3320 | 4.86 | 0.0879 | 9.06 | 0.946 | 2.03 |  |  |  |  |  |  |  |  |  |  | 
Xi14A9 (antibody, human IgG4 S228P, kappa, V domains shown, mouse variable regions on human IgG4 (EU S228P) and human kappa constant regions; also called chimeric 14A9 antibody) VH: EVQLQQSGAEVARPGASVKLSCTVSGFNIEDDYIEWVKQRPEQGLEWIGRIDPANDKTKYAPKFQDKATITGDTSSNTAYLQLSSLTSEDTAVYYCTRPGLRRYYSMDYWGQGTSVTVSS VL: NIVLTQSPKSMSMSVGERVTLSCKASENVVSYVSWYQQKPEQSPKLLIYGASNRYTGVPDRFIGSGSSTDFTLIISSFQPEDLADYHCGQSYSYPLTFGAGTKLELKR | 26500 | 54.2 | 44.7 | 1.58 | 32800 | 1.28 | 0.273 | 2.35 | 0.444 | 0.541 |  |  |  |  |  |  |  |  |  |  | 
hz3F10-4.2 (antibody, human IgG4 S228P, kappa, V domains shown, humanized 3F10, full-length heavy and light chains) VH: QVQLVQSGAEVKKPGSSVKVSCKASGYTFSRYWIEWVRQAPGQGLEWMGEFIPGSDTTNYAQKFQGRVTITAEISTNTAYMELSSLRSEDTAVYYCARGGLRRMDYWGQGTLVTVSS VL: DIQMTQSPSSLSASVGDRVTITCRASSSVSSTYLHWYQQKPGKAPKLLIYTTSTLASGVPSRFSGSGSGTSYTLTISSLQPEDFATYYCQQFSESTWTFGQGTKLEIKR |  |  |  |  |  |  |  |  |  |  | 3.3 | 4810 | 0.181 | 1.74 | 46.2 | 31.7 | 1.26 | 45600 | 1.34 | 1.86 | 
Xi3F10 (antibody, human IgG4 S228P, kappa, V domains shown, mouse variable regions on human IgG4 (EU S228P) and human kappa constant regions; also called chimeric 3F10 antibody) VH: EVQLQQSVAELMKPGASVKIYCKATGYTFSRYWIEWVKQRPGHGLEWIGEFIPGSDTTNFNEKFKGKATFTAEISSNTAYMQLSSLTSEDSAVYFCARGGLRRMDYWGQGTSVTVSS VL: DIVMTQTPAIMSASPGEKVTMTCRASSSVSSTYLHWYQQKSGASPKLWIYTTSTLASGVPARFSGSGSGTSYSLTISSVEAEDAATYYCQQFSDSTWTFGGGTKLEIKR | 36100 | 65.7 | 59.8 | 1.04 | 61800 | 0.358 | 1.11 | 0.767 | 7.91 | 19.8 |  |  |  |  |  |  |  |  |  |  | 
Xi2B2 (antibody, human IgG4 S228P, kappa, V domains shown, mouse variable regions on human IgG4 (EU S228P) and human kappa constant regions; also called chimeric 2B2 antibody) VH: EVMLVESGGGLVQPGGSLKLSCAASGFTFSNYYMSWVRQTPEKRLEWVAYISSGGGSTYYPDSVKGRFTISRDNAKNTLYLQMSSLKSEDTAMYYCAWFAYWGQGTLVTVSA VL: not shown | 656 | 7.3 | 4.1 | 1.2 | 608 |  | 0.349 | 7.48 |  | 30.8 |  |  |  |  |  |  |  |  |  |  | 

More lines, main results first:

MFI [1] [MFI] | rate of phagocytosis, antibody 1 µg/mL (CD47 on HL60 cells [2]) [%] | rate of phagocytosis, antibody 10 µg/mL (CD47 on HL60 cells [2]) [%] | Kd [3] [nM] | MFI [6] [MFI] | IC50 (CD47 on Jurkat cells) [µg/mL] | EC50 [7] [µg/mL] | Kd [8] [nM] | IC50 [9] [µg/mL] | EC50 [10] [µg/mL] | red cell agglutination, lowest concentration causing it [11] [µg/mL] | MFI [12] [MFI] | EC50 [13] [µg/mL] | IC50 [14] [µg/mL] | rate of phagocytosis, antibody 1 µg/mL (CD47 on HL60 cells [15]) [%] | rate of phagocytosis, antibody 10 µg/mL (CD47 on HL60 cells [15]) [%] | EC50 [16] [µg/mL] | MFI [17] [MFI] | Kd [18] [nM] | Kd [19] [nM] | Binder | other results
 |  |  |  |  |  |  |  |  |  | 3.3 | 894 | 0.138 | 2.32 | 3.03 | 4.33 | 18.8 | 4880 | 15.3 | 2.73 | hz16E5-1.3 (antibody, human IgG4 S228P, kappa, humanized 16E5, full-length heavy and light chains) heavy: not shown light: DIQMTQSPSSLSASVGDRVTITCRSSQSLVHSNGYTYLHWYQQKPGKAPKLLIYKVSNRFSGVPSRFSGSGSGTDFTLTISSLQPEDFATYYCSQSTHVPPTFGQGTKLEIKRTVAAPSVFIFPPSDEQLKSGTASVVCLLNNFYPREAKVQWKVDNALQSGNSQESVTEQDSKDSTYSLSSTLTLSKADYEKHKVYACEVTHQGLSSPVTKSFNRGEC | 
 |  |  |  |  |  |  |  |  |  | 3.3 | 945 | 0.14 | 15.2 | 6.37 | 24.2 | 5.88 | 5140 | 6.28 | 3.28 | hz16E5-3.1 (antibody, human IgG4 S228P, kappa, humanized 16E5, full-length heavy and light chains) heavy: not shown light: DAQMTQSPSSLSASVGDRVTITCRSSQSLVHSNGYTYLHWYQQKPGKAPKLLIYKVSNRFSGVPSRFSGSGSGTDFTLTISSLQPEDFATYYCSQSTHVPPTFGQGTKLEIKRTVAAPSVFIFPPSDEQLKSGTASVVCLLNNFYPREAKVQWKVDNALQSGNSQESVTEQDSKDSTYSLSSTLTLSKADYEKHKVYACEVTHQGLSSPVTKSFNRGEC | 
 |  |  |  |  |  |  |  |  |  | 3.3 | 848 | 0.241 | 2 | 11.6 | 4.7 | 40.5 | 3870 | 7.13 | 1.87 | hz16E5-3.3 (antibody, human IgG4 S228P, kappa, humanized 16E5, full-length heavy and light chains) heavy: not shown light: DAQMTQSPSSLSASVGDRVTITCRSSQSLVHSNGYTYLHWYQQKPGKAPKLLIYKVSNRFSGVPSRFSGSGSGTDFTLTISSLQPEDFATYYCSQSTHVPPTFGQGTKLEIKRTVAAPSVFIFPPSDEQLKSGTASVVCLLNNFYPREAKVQWKVDNALQSGNSQESVTEQDSKDSTYSLSSTLTLSKADYEKHKVYACEVTHQGLSSPVTKSFNRGEC | 
